PMC9071441

Molecular target: mNeonGreen-tagged T-bet DNA binding domain (aa 135-326) Q160A (mouse) (UniProt Q9JKD8)
Assay: FRET or BRET; flow-cytometric FRET in HEK293T cells co-transfected with 730 ng of each vector for mTagBFP- and mNeonGreen-tagged proteins; read 32 hours after transfection; 405 nm laser line, 530/30 bandpass filter; DFRET efficiency

mTagBFP-tagged GATA3 DNA binding domain (aa 259-369), sequence (P23772 259-369): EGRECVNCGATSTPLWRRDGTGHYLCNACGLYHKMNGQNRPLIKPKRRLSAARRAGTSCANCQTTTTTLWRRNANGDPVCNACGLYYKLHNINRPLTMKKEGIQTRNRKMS
mNeonGreen-tagged T-bet DNA binding domain (aa 135-326) Q160A (mouse), sequence (Q9JKD8 135-326, stated change not applied): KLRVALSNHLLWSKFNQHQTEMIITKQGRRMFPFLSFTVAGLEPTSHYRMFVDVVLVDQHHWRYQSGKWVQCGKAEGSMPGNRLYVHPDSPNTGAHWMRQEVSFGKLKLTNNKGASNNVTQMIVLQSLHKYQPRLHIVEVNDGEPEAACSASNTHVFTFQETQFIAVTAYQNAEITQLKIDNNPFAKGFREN

reduction of the FRET interaction signal against WT T-bet DBD: 50%
Substance: mTagBFP-tagged GATA3 DNA binding domain (aa 259-369) (from UniProt P23772 259-369) (domain or fragment)
